According to IntAct's records for PubMed 17210637:

Target: merl_human NF2 (UniProt P35240)
UniProt P35240, sequence (P35240 whole entry): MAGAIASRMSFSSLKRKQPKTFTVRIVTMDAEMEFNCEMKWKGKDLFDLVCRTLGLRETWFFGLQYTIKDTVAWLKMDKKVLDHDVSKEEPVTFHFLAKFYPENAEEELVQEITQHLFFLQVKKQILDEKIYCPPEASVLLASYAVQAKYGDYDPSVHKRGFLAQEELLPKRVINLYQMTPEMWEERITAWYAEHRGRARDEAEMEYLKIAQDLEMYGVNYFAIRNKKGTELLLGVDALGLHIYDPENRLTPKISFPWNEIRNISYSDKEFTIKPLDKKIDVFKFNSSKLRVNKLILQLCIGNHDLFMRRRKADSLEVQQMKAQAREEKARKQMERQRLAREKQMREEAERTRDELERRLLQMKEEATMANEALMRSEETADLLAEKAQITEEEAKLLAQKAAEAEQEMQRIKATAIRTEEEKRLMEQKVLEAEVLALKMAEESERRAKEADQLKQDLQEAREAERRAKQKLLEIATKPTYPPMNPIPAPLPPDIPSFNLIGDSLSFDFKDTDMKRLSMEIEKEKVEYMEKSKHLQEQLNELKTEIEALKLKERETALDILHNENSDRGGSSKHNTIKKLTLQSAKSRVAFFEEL

GTP-binding protein 4 (Homo sapiens) (from UniProt Q9BZE4) R394A;K395A
effect of a mutation on the interaction: decreasing interaction
